Tests used:
[1] = target: bromodomain protein 4 (Brd4), endogenous (human (endogenous in C33A and 293T)) (UniProt O60885)
[2] = target: bromodomain protein 4 (Brd4), endogenous (human (endogenous in C33A and 293T)) (UniProt O60885); remark: listed apart in the source
[3] = target: bromodomain protein 4 (Brd4), endogenous (human (endogenous in C33A and 293T)) (UniProt O60885); experiment: co-IP; nuclear extracts of transfected C33A or 293T cells IPed with polyclonal Brd4 antibody (NA or CA) or normal rabbit IgG, immunoblot; immuno-complexes unchanged at 300 mM NaCl, only slightly dissociated at 500 and 1000 mM

Substance | MCV episome copy number by qPCR in 293-4T cells (stably expressing MCV LT and sT) super-transfected with the Brd4 471-730 DNI construct, 24 h to 4 days: reduction (∼60% within the first 24 h) [1] [%] | replication of the MCV genome (LT expressed from the viral genome) in 293T cells co-transfected with 0, 7 or 9 µg pcDNA4C-Brd4 471-730, DpnI-resistant DNA by Southern blotting at 24 h: inhibition [2] [%] | percent of the MCV LT co-immunoprecipitated [3] [%]
MCV large T antigen (LT) expressed from pADL* (natural protein) | 94 | 92 | 20
MCV large T antigen (LT), Xpress-tagged, from pcDNA4C-MCV LT (natural protein) |  |  | 40

— publication PMC3493480
